The results in this text go back to PMC12149299.

Like-named read-outs stand apart in the source and are kept apart here.

This experiment deals with HIV-1 gp120 protein from the BaL.01 strain (HIV-1). Nature of the experiment: BLI. A general note: Biolayer interferometry detects binding as a change in optical thickness at a sensor tip.

B1: VRC01 (protein)
chain 1: QVQLVQSGGQMKKPGESMRISCRASGYEFIDCTLNWIRLAPGKRPEWMGWLKPRGGAVNYARPLQGRVTMTRDVYSDTAFLELRSLTVDDTAVYFCTRGKNCDYNWDFEHWGRGTPVIVSS
chain 2: EIVLTQSPGTLSLSPGETAIISCRTSQYGSLAWYQQRPGQAPRLVIYSGSTRAAGIPDRFSGSRWGPDYNLTISNLESGDFGVYYCQQYEFFGQGTKVQVD
As usually defined, the Kd is a measure of binding affinity in units of concentration. A higher Kd goes with a looser complex. Molecule B1 returned a Kd of 25.1 nM. That is a double-digit nanomolar value.

B2: FD22 (protein)
chain 1: QVQLSQSGGGAVQPGKSLTLSCRAYGFHLFSYVVVWVRQTPQNGLEWVAGAASGGWPQEFMNSVRGRFSISRDDYTVSLQMNALRVDDSGLYFCAQERGLHRLDGAVKFGRWFRAWGQGSQVVVTS
chain 2: QSALTQPASVSGSPGQSITLSCTGADNSVSWYQVVPGRAPKLLIFEVNVRPSEVSDRFSGSKSGDTASLTISRLQIEDESDYYCVTRRGDVTYLFGSGTRVSVL
With B2, the Kd (biotin (EZ-Link NHS-LC-Biotin) in the competition ELISA only | biotin (EZ-Link NHS-LC-Biotin) in the competition ELISA only) came to 8.88 nM.
